Experimental data: patent US20250326823A1

Key:
Assay in all cases: cell-based or functional assay
[1] = target: SARS-CoV-2 D614G spike (S) protein (SARS-CoV-2) (UniProt P0DTC2)
[2] = target: SARS-CoV-2 spike (S) protein, D614G (SARS-CoV-2) (UniProt P0DTC2)
[3] = target: SARS-CoV-2 spike (S) protein, variant B.1.427 (SARS-CoV-2)
[4] = target: SARS-CoV-2 spike (S) protein, variant B.1.429 (SARS-CoV-2)
[5] = target: SARS-CoV-2 spike (S) protein, variant B.1.525 (SARS-CoV-2)
[6] = target: SARS-CoV-2 spike (S) protein, variant BA.1 (SARS-CoV-2) (UniProt P0DTC2)
[7] = target: SARS-CoV-2 spike (S) protein, variant BA.2.86 (SARS-CoV-2)
[8] = target: SARS-CoV-2 spike (S) protein, variant BA.4/5 (SARS-CoV-2) (UniProt P0DTC2)
[9] = target: SARS-CoV-2 spike (S) protein, variant BQ.1.1 (SARS-CoV-2) (UniProt P0DTC2)
[10] = target: SARS-CoV-2 spike (S) protein, variant FL.1.5.1 (SARS-CoV-2)
[11] = target: SARS-CoV-2 spike (S) protein, variant HK.3 (SARS-CoV-2)
[12] = target: SARS-CoV-2 spike (S) protein, variant HV.1 (SARS-CoV-2)
[13] = target: SARS-CoV-2 spike (S) protein, variant JF.1 (SARS-CoV-2)
[14] = target: SARS-CoV-2 spike (S) protein, variant LB.1 (SARS-CoV-2) (UniProt P0DTC2)
[15] = target: SARS-CoV-2 spike (S) protein, variant P.1 (SARS-CoV-2)
[16] = target: SARS-CoV-2 spike (S) protein, variant XBB.1 (SARS-CoV-2) (UniProt P0DTC2)
[17] = target: SARS-CoV-2 spike (S) protein, variant XBB.1.16 (SARS-CoV-2) (UniProt P0DTC2)
[18] = target: SARS-CoV-2 spike (S) protein, variant XBB.1.5 (SARS-CoV-2) (UniProt P0DTC2)
[19] = target: SARS-CoV-2 spike (S) protein, variant XBB.2.3.2 (SARS-CoV-2)
[20] = target: SARS-CoV-2 spike (S) protein, variant XBC.1 (SARS-CoV-2) (UniProt P0DTC2)
[21] = target: SARS-CoV-2 spike (S) protein, variant JN.1.13.1 (SARS-CoV-2)
[22] = target: SARS-CoV-2 spike (S) protein, variant KP.2 (SARS-CoV-2)
[23] = target: SARS-CoV-2 spike (S) protein, variant KP.2.3 (SARS-CoV-2)
[24] = target: SARS-CoV-2 spike (S) protein, variant LB.1 (SARS-CoV-2)

Substance: AZD3152 (antibody)
- pseudovirus neutralization IC50 [1]: 0.015 mg/L
- IC50, pseudotyped neutralization potency [2]: 0.016 nM
- IC50, pseudovirus neutralization [2]: 0.102 nM
- IC80, pseudotyped neutralization potency [2]: 0.032 nM
- IC80, pseudovirus neutralization [2]: 0.623 nM
- IC50, pseudovirus neutralization [3]: 0.598 nM
- IC80, pseudovirus neutralization [3]: 2.03 nM
- IC50, pseudovirus neutralization [4]: 0.549 nM
- IC80, pseudovirus neutralization [4]: 1.39 nM
- IC50, pseudovirus neutralization [5]: 0.668 nM
- IC80, pseudovirus neutralization [5]: 1.53 nM
- pseudotyped neutralization potency IC50 [6]: 0.123 nM
- pseudotyped neutralization potency IC80 [6]: 0.313 nM
- IC50, pseudovirus neutralization [7]: 0.351 nM
- IC80, pseudovirus neutralization [7]: 2.23 nM
- pseudotyped neutralization potency IC50 [8]: 0.102 nM
- pseudotyped neutralization potency IC80 [8]: 0.266 nM
- pseudotyped neutralization potency IC50 [9]: 0.392 nM
- pseudotyped neutralization potency IC80 [9]: 0.944 nM
- IC50, pseudovirus neutralization [10]: > 67 nM
- IC80, pseudovirus neutralization [10]: > 67 nM
- IC50, pseudovirus neutralization [11]: > 67 nM
- IC80, pseudovirus neutralization [11]: > 67 nM
- IC50, pseudovirus neutralization [12]: > 67 nM
- IC80, pseudovirus neutralization [12]: > 67 nM
- IC50, pseudovirus neutralization [13]: > 67 nM
- IC80, pseudovirus neutralization [13]: > 67 nM
- neutralizing activity IC50 (µg/ml (caption; values match nM)) [14]: > 67
- neutralizing activity IC80 (µg/ml (caption; values match nM)) [14]: > 67
- IC50, pseudovirus neutralization [15]: 0.315 nM
- IC80, pseudovirus neutralization [15]: 0.548 nM
- pseudotyped neutralization potency IC50 [16]: 0.096 nM
- pseudotyped neutralization potency IC80 [16]: 0.302 nM
- pseudotyped neutralization potency IC50 [17]: 0.092 nM
- pseudotyped neutralization potency IC80 [17]: 0.381 nM
- pseudotyped neutralization potency IC50 [18]: 0.12 nM
- pseudotyped neutralization potency IC80 [18]: 0.308 nM
- IC50, pseudovirus neutralization [19]: 0.168 nM
- IC80, pseudovirus neutralization [19]: 0.513 nM
- pseudotyped neutralization potency IC50 [20]: 0.0322 nM
- pseudotyped neutralization potency IC80 [20]: 0.209 nM

Substance: ADG20 (antibody)
- neutralization IC50 [2]: 0.019 nM
- neutralization IC80 [2]: 0.065 nM
- neutralization IC50 [3]: 0.072 nM
- neutralization IC80 [3]: 0.162 nM
- neutralization IC50 [4]: 0.014 nM
- neutralization IC80 [4]: 0.061 nM
- neutralizing activity IC50 [5]: 0.019 nM
- neutralizing activity IC80 [5]: 0.101 nM
- pseudovirus neutralization IC50 [7]: > 67 nM
- pseudovirus neutralization IC80 [7]: > 67 nM
- pseudovirus neutralization IC50 [21]: > 67 nM
- pseudovirus neutralization IC80 [21]: > 67 nM
- pseudovirus neutralization IC50 [22]: > 67 nM
- pseudovirus neutralization IC80 [22]: > 67 nM
- pseudovirus neutralization IC50 [23]: > 67 nM
- pseudovirus neutralization IC80 [23]: > 67 nM
- neutralizing activity IC50 (µg/ml (caption; values match nM)) [14]: > 67
- neutralizing activity IC80 (µg/ml (caption; values match nM)) [14]: > 67
- pseudovirus neutralization IC50 [24]: > 67 nM
- pseudovirus neutralization IC80 [24]: > 67 nM
- neutralizing activity IC50 [15]: 0.021 nM
- neutralizing activity IC80 [15]: 0.117 nM
- neutralizing activity IC50 [19]: > 67 nM
- neutralizing activity IC80 [19]: > 67 nM
